{
  "source": "paper PMC6824560",
  "about": "“Insight into the relationship between aryl-hydrocarbon receptor and β-catenin in human colon cancer cells” (PLoS ONE, 2019)",
  "binders": {"B1": {"name": "human AhR fused to Gal4 activating domain in pGADT7 (natural protein, UniProt P35869 1-848, looked up)", "chain": "MNSSSANITYASRKRRKPVQKTVKPIPAEGIKSNPSKRHRDRLNTELDRLASLLPFPQDVINKLDKLSVLRLSVSYLRAKSFFDVALKSSPTERNGGQDNCRAANFREGLNLQEGEFLLQALNGFVLVVTTDALVFYASSTIQDYLGFQQSDVIHQSVYELIHTEDRAEFQRQLHWALNPSQCTESGQGIEEATGLPQTVVCYNPDQIPPENSPLMERCFICRLRCLLDNSSGFLAMNFQGKLKYLHGQKKKGKDGSILPPQLALFAIATPLQPPSILEIRTKNFIFRTKHKLDFTPIGCDAKGRIVLGYTEAELCTRGSGYQFIHAADMLYCAESHIRMIKTGESGMIVFRLLTKNNRWTWVQSNARLLYKNGRPDYIIVTQRPLTDEEGTEHLRKRNTKLPFMFTTGEAVLYEATNPFPAIMDPLPLRTKNGTSGKDSATTSTLSKDSLNPSSLLAAMMQQDESIYLYPASSTSSTAPFENNFFNESMNECRNWQDNTAPMGNDTILKHEQIDQPQDVNSFAGGHPGLFQDSKNSDLYSIMKNLGIDFEDIRHMQNEKFFRNDFSGEVDFRDIDLTDEILTYVQDSLSKSPFIPSDYQQQQSLALNSSCMVQEHLHLEQQQQHHQKQVVVEPQQQLCQKMKHMQVNGMFENWNSNQFVPFNCPQQDPQQYNVFTDLHGISQEFPYKSEMDSMPYTQNFISCNQPVLPQHSKCTELDYPMGSFEPSPYPTTSSLEDFVTCLQLPENQKHGLNPQSAIITPQTCYAGAVSMYQCQPEPQHTHVGQMQYNPVLPGQQAFLNKFQNGVLNETYPAELNNINNTQTTTHLQPLHHPSEARPFPDLTSSGFL", "notes": "aryl-hydrocarbon receptor (AhR), human cDNA; also called pGAD-AhR; aryl-hydrocarbon receptor; source: yeast two-hybrid fusion, yeast strain Y187"}},
  "target": "T1, human Arnt fused to Gal4 DNA-binding domain in pGBKT7 (human, UniProt P27540 1-789)",
  "T1 construct": "Arnt, human cDNA; This fusion alone induces the reporter; also called pGBK-Arnt; source: yeast two-hybrid fusion, yeast strain Y187",
  "T1 sequence (P27540 whole entry, the tested form may be a part)": "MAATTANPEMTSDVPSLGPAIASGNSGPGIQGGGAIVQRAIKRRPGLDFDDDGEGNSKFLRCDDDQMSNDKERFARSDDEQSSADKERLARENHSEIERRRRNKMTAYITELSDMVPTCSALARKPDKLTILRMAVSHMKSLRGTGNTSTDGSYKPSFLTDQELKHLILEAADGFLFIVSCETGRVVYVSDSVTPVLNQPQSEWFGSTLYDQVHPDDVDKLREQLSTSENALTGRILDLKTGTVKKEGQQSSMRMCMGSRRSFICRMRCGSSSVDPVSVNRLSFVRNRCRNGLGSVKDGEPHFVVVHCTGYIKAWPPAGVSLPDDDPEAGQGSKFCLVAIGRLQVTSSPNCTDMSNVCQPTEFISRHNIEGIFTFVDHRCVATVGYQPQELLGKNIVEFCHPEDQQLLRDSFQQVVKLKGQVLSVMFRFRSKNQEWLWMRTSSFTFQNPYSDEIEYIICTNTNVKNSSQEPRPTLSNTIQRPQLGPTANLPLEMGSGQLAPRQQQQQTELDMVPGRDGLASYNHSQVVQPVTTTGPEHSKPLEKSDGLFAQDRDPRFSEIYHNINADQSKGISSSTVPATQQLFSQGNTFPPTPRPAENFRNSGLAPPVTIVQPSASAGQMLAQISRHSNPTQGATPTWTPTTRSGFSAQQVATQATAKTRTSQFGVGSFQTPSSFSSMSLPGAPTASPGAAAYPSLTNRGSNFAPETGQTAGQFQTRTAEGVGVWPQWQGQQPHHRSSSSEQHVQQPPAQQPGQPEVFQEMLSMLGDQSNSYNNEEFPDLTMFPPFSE",
  "assay": "two-hybrid; yeast two-hybrid in strain Y187, pGADT7 and pGBKT7 fusions, 1 μM 3MC or 0.1% DMSO for 12 h at 30°C, β-galactosidase read-out (o-nitrophenol-β-D-galactopyranoside); DDB1 or CUL4B co-expressed from pESC in some samples",
  "conditions": "partners not purified",
  "data": [
    {"binder": "B1", "values": [
      {"measurement": "fold increase of two-hybrid reporter activity over pGBK-Arnt alone", "result": "~3", "unit": "fold"}
    ]}
  ]
}
